Results as given in paper PMC6602471.

Target: T1, ETS1 (Homo sapiens) (UniProt P14921)
T1 sequence (P14921 whole entry, looked up): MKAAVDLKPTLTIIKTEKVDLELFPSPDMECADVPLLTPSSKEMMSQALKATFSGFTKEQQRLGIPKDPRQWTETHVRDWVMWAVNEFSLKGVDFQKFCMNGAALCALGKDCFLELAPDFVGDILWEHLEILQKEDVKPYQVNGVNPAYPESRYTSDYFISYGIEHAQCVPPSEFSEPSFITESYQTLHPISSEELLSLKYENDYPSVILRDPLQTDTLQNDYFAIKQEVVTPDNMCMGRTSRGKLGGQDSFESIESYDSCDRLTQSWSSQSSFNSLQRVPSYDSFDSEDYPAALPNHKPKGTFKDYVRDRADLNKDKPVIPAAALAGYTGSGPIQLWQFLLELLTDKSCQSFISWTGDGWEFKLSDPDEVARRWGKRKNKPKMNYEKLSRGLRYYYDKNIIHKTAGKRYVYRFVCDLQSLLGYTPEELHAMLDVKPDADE
Experiment: PBM
Settings: Custom protein-binding microarray; buffer, salt, pH and temperature not given in the material

Row | Sequence | binding signal
1 | CGGAAGTGTCGTAAACGTCGGAAATCCGGTTCTTCTGTCTTGATTCGCTTGACGCTGCTG (double strand) [seq01_p23 T>A] | 9.71 log signal
2 | CGGAAGTGTCGTAAACGTCGGACATCCGGTTCTTCTGTCTTGATTCGCTTGACGCTGCTG (double strand) [seq01_p23 T>C] | 12.6 log signal
3 | CGGAAGTGTCGTAAACGTCGGAGATCCGGTTCTTCTGTCTTGATTCGCTTGACGCTGCTG (double strand) [seq01_p23 T>G] | 8.83 log signal
4 | CGGAAGTGTCGTAAACGTCGGATAACCGGTTCTTCTGTCTTGATTCGCTTGACGCTGCTG (double strand) [seq01_p25 T>A] | 8.34 log signal
5 | CGGAAGTGTCGTAAACGTCGGATACCCGGTTCTTCTGTCTTGATTCGCTTGACGCTGCTG (double strand) [seq01_p25 T>C] | 8.31 log signal
6 | CGGAAGTGTCGTAAACGTCGGATAGCCGGTTCTTCTGTCTTGATTCGCTTGACGCTGCTG (double strand) [seq01_p25 T>G] | 8.18 log signal
7 | CGGAAGTGTCGTAAACGTCGGATATACGGTTCTTCTGTCTTGATTCGCTTGACGCTGCTG (double strand) [seq01_p26 C>A] | 9.21 log signal
8 | CGGAAGTGTCGTAAACGTCGGATATCAGGTTCTTCTGTCTTGATTCGCTTGACGCTGCTG (double strand) [seq01_p27 C>A] | 8.51 log signal
9 | CGGAAGTGTCGTAAACGTCGGATATCCAGTTCTTCTGTCTTGATTCGCTTGACGCTGCTG (double strand) [seq01_p28 G>A] | 8.64 log signal
10 | CGGAAGTGTCGTAAACGTCGGATATCCCGTTCTTCTGTCTTGATTCGCTTGACGCTGCTG (double strand) [seq01_p28 G>C] | 8.7 log signal
11 | CGGAAGTGTCGTAAACGTCGGATATCCGATTCTTCTGTCTTGATTCGCTTGACGCTGCTG (double strand) [seq01_p29 G>A] | 8.64 log signal
12 | CGGAAGTGTCGTAAACGTCGGATATCCGCTTCTTCTGTCTTGATTCGCTTGACGCTGCTG (double strand) [seq01_p29 G>C] | 10.1 log signal
13 | CGGAAGTGTCGTAAACGTCGGATATCCGGATCTTCTGTCTTGATTCGCTTGACGCTGCTG (double strand) [seq01_p30 T>A] | 9.94 log signal
14 | CGGAAGTGTCGTAAACGTCGGATATCCGGCTCTTCTGTCTTGATTCGCTTGACGCTGCTG (double strand) [seq01_p30 T>C] | 10.7 log signal
15 | CGGAAGTGTCGTAAACGTCGGATATCCGGGTCTTCTGTCTTGATTCGCTTGACGCTGCTG (double strand) [seq01_p30 T>G] | 10.2 log signal
16 | CGGAAGTGTCGTAAACGTCGGATATCCGGTTCTTCTGTCTTGATTCGCTTGACGCTGCTG (double strand) [seq01_wt0] | 11.9 log signal
17 | CGGAAGTGTCGTAAACGTCGGATATCCGTTTCTTCTGTCTTGATTCGCTTGACGCTGCTG (double strand) [seq01_p29 G>T] | 9.45 log signal
18 | CGGAAGTGTCGTAAACGTCGGATATCCTGTTCTTCTGTCTTGATTCGCTTGACGCTGCTG (double strand) [seq01_p28 G>T] | 10.1 log signal
19 | CGGAAGTGTCGTAAACGTCGGATATCGGGTTCTTCTGTCTTGATTCGCTTGACGCTGCTG (double strand) [seq01_p27 C>G] | 8.65 log signal
20 | CGGAAGTGTCGTAAACGTCGGATATCTGGTTCTTCTGTCTTGATTCGCTTGACGCTGCTG (double strand) [seq01_p27 C>T] | 8.37 log signal
21 | CGGAAGTGTCGTAAACGTCGGATATGCGGTTCTTCTGTCTTGATTCGCTTGACGCTGCTG (double strand) [seq01_p26 C>G] | 8.38 log signal
22 | CGGAAGTGTCGTAAACGTCGGATATTCGGTTCTTCTGTCTTGATTCGCTTGACGCTGCTG (double strand) [seq01_p26 C>T] | 8.55 log signal
23 | CGGAAGTGTCGTAAACGTCGGATCTCCGGTTCTTCTGTCTTGATTCGCTTGACGCTGCTG (double strand) [seq01_p24 A>C] | 8.47 log signal
24 | CGGAAGTGTCGTAAACGTCGGATGTCCGGTTCTTCTGTCTTGATTCGCTTGACGCTGCTG (double strand) [seq01_p24 A>G] | 9.65 log signal
25 | CGGAAGTGTCGTAAACGTCGGATTTCCGGTTCTTCTGTCTTGATTCGCTTGACGCTGCTG (double strand) [seq01_p24 A>T] | 12.5 log signal
26 | CGGAAGTGTCGTAAACGTCGGCTATCCGGTTCTTCTGTCTTGATTCGCTTGACGCTGCTG (double strand) [seq01_p22 A>C] | 8.79 log signal
27 | CGGAAGTGTCGTAAACGTCGGGTATCCGGTTCTTCTGTCTTGATTCGCTTGACGCTGCTG (double strand) [seq01_p22 A>G] | 10.5 log signal
28 | CGGAAGTGTCGTAAACGTCGGTTATCCGGTTCTTCTGTCTTGATTCGCTTGACGCTGCTG (double strand) [seq01_p22 A>T] | 9.21 log signal
29 | GCTGCTGCGGTGCATACCCCACCGGATGTGACCCCGGTCTTGATTCGCTTGACGCTGCTG (double strand) [seq02_wt0] | 10.2 log signal
30 | GGAAAAAGGCCCAGGGTAACACCGGAAGTGGGCTTAGTCTTGATTCGCTTGACGCTGCTG (double strand) [seq04_wt0] | 12 log signal
